One may read the Ki as the equilibrium dissociation constant of an inhibitor or competing ligand from its target. A higher Ki goes with weaker binding.

Experimental findings from publication doi:10.1101/2021.04.13.439572 are described below.

Holding throughout (assay): fluorescence polarisation
Experiment [1] concerns the target KPNB1 HEAT, tag cleaved, for affinity measurements.
For experiment [2], the target named is 14-3-3 protein sigma (14-3-3 SFN), tag cleaved, for affinity measurements.
For experiment [3], the target named is KPNA4 ARM, MBP-tagged, for affinity measurements.
For experiment [4], the target named is MDM2 SWIB, cleaved from the His-GST tag, for affinity measurements.
The target in experiment [5] is TLN1 PTB, tag cleaved, for affinity measurements.

For the substance “KPNA2_(514-529) C-terminal synthetic peptide (from UniProt P52292 514-529)”, the inhibitory constant (Ki) in experiment [1] is 1000 µM. That is a millimolar value.

Consider MAP1A_(1836-1851) synthetic peptide, for which the Ki in experiment [2] is 355 µM.

In experiment [3], “NKX2-5_(192-207) K194R synthetic peptide (from UniProt P52952 192-207)” came in with a fold loss of affinity against wild-type NKX2-5 (192-207) of 10 fold.

In experiment [4], “NUMB_(615-630) synthetic peptide (from UniProt P49757 615-630)” had a Ki of 3.3 µM.

“RNF115_(69-84) synthetic peptide (from UniProt Q9Y4L5 69-84)” showed a Ki in experiment [4] of 0.17 µM.

With “integrin beta-3 ITB3_(763-778) synthetic peptide”, the Ki in experiment [5] was determined as 500 µM.
